A word on the kon: it is a measure of how fast the partners come together.

These results are taken from article PMC10917276, “A tick saliva serpin, IxsS17 inhibits host innate immune system proteases and enhances host colonization by Lyme disease agent” (PLOS Pathogens, 2024).

First the molecules themselves.
B1: rat skin trypsin IV (enzyme, UniProt P12788 24-247, looked up)
chain: IVGGYTCPKHLVPYQVSLHDGISHQCGGSLISDQWVLSAAHCYKRKLQVRLGEHNIHVLEGGEQFIDAEKIIRHPEYNKDTLDNDIMLIKLKSPAVLNSQVSTVSLPRSCASTDAQCLVSGWGNTVSIGGKYPALLQCLEAPVLSASSCKKSYPGQITSNMFCLGFLEGGKDSCDGDSGGPVVCNGEIQGIVSWGSVCAMRGKPGVYTKVCNYLSWIQETMANN
notes: rat trypsin IV, in house expressed; construct not described; also called rat trypsin IV; source: in house expressed
B2: C-terminal hexa-histidine tagged recombinant Ixodes scapularis serpin 17 (rIxsS17) (natural protein)
chain: DDISQDKWKLARANNYLGLNLLKQLPSNDKTNVFFSPFSVSTAMGMAYAGARGDTLEQLTLNFGYAADELNEGKVLALFKEQLQSTNDLPHDYTLNIANAAVAQEGYGILPEYTDALTSSFGAEYIEADFQKRGQEAIQKINAWVSNRTHGKVQSLFDEPPDFSTRLILLNAIYYKGTWLYEFDKTKTKPRSFYNGGVEKVQVPMMRLKSTLNHTYNAILNADLVDLPYVGNDFSMTIILPREKTGLASLKSVLTSQTLNLALQNMYPKDMKLKLPKFKLDTKYTLKPTLEAMGITKIFSADADLSGISGSRNLYVSDVLHKAVLEVNEEGSEAAAVTGFVIQLRTAAFVTPPPLPKVYVDHPFIFLIRNSRTNTIMFLGEINAL
modifications: glycosylated (sites not given)
notes: Ixodes scapularis tick saliva serpin 17 (IxsS17), GenBank EEC18973.1; Codon-optimised synthetic gene in pPICZαA; also called C-terminal-His-rIxsS17; C-terminal His-tagged rIsS17; source: Pichia pastoris X33, secreted into medium, purified (ammonium sulfate, Hi-Trap Chelating HP); not shown: His6, C-terminal, kept
B3: blood clotting factor Xa (enzyme)
chain 1: ANSFLEEMKKGHLERECMEETCSYEEAREVFEDSDKTNEFWNKYKDGDQCETSPCQNQGKCKDGLGEYTCTCLEGFEGKNCELFTRKLCSLDNGDCDQFCHEEQNSVVCSCARGYTLADNGKACIPTGPYPCGKQTLER
chain 2: IVGGQECKDGECPWQALLINEENEGFCGGTILSEFYILTAAHCLYQAKRFKVRVGDRNTEQEEGGEAVHEVEVVIKHNRFTKETYDFDIAVLRLKTPITFRMNVAPACLPERDWAESTLMTQKTGIVSGFGRTHEKGRQSTRLKMLEVPYVDRNSCKLSSSFIITQNMFCAGYDTKQEDACQGDSGGPHVTRFKDTYFVTGIVSWGEGCARKGKYGIYTKVTAFLKWIDRSMKTRGLPKAKSHAPEVITSSPLK

The target of experiment [1] is bovine pancreatic trypsin (bovine). As to the kind of experiment: stoichiometry of inhibition from residual protease activity (substrate hydrolysis); molar ratios of His-tagged rIxsS17 to protease 0, 2.5, 5, 10, 20, 25, 50; 15 min at 37°C; bovine trypsin 1.5 nM, rat trypsin IV 2.0 nM or factor Xa 13.9 nM; linear regression extrapolated to zero activity.
Experiment [2] has the same target. Nature of the experiment: discontinuous inhibition kinetics from residual protease activity (second-order rate constant); rIxsS17 50-1000 nM with bovine trypsin 14.6 nM, trypsin IV 12.5 nM or fXa 13.9 nM for 0-15 min at 37°C; kobs from semi-log plots, ka from the slope of kobs against rIxsS17 concentration.
For experiment [3] the target is unchanged.
Experiment [4] has as its target B2. As to the kind of experiment: discontinuous inhibition kinetics from residual protease activity (second-order rate constant); rIxsS17 50-1000 nM with bovine trypsin 14.6 nM, trypsin IV 12.5 nM or fXa 13.9 nM for 0-15 min at 37°C; kobs from semi-log plots, ka from the slope of kobs against rIxsS17 concentration. To be noted: both partners purified.
The target of experiment [5] is B3. As to the kind of experiment: stoichiometry of inhibition from residual protease activity (substrate hydrolysis); molar ratios of His-tagged rIxsS17 to protease 0, 2.5, 5, 10, 20, 25, 50; 15 min at 37°C; bovine trypsin 1.5 nM, rat trypsin IV 2.0 nM or factor Xa 13.9 nM; linear regression extrapolated to zero activity. To be noted: both partners purified.
In experiment [6] the target is B1. Described as above. Particulars: both partners purified.

Regarding “C-terminal hexa-histidine tagged recombinant Ixodes scapularis serpin 17 (rIxsS17) (from UniProt A0ACM8DKW3 71-455) (natural protein)”, the stoichiometry of inhibition (SI) in experiment [1] was 12.9. Further, in experiment [2], the association rate constant (kon) is 2700 M⁻¹ s⁻¹.

“N-terminal hexa-histidine tagged rIxsS17 with TEV site (natural protein)” displayed a decrease in the inhibitory activity against trypsin of the N-terminal hexa-His construct (substrate hydrolysis assay) in experiment [3] of 8.6%.

Turning to B1, the kon in experiment [4] was 3900 M⁻¹ s⁻¹.

Turning to B2, the “stoichiometry of inhibition (SI)” value in experiment [5] is 68; in experiment [6], 10.5.

In the case of B3, the kon in experiment [4] worked out at 540 M⁻¹ s⁻¹.
